Measured values from PMC9530591 (eBioMedicine, 2022).

Target: HA1-trimer (influenza A virus H1N1 …)
Test: SPR
Conditions: both partners purified

B1: 5J8 (antibody, V domains shown)
VH: EVQLVESGPGLVKPSDILSLTCAVSGYSISSNYYWGWIRQPPGKGLEWIGSIYHSGSTYYKPSLESRLGISVDTSKNQFSLKLSFVSAADTAVYYCARHVRSGYPDTAYYFDKWGQGTLVTVSS
VL: SYVLTQPPSVSVAPGETARISCGGNNIGTKVLHWYQQTPGQAPVLVVYDDSDRPSGIPERFSGSNSGNTATLTISRVEVGDEADYYCQVWDISTDQAVFGGGTKLTVL
B1 gave a Kd of 0.0531 nM.

B2: 32D6 (antibody, V domains shown)
VH: QVQLQESGPGLVKPSETLSLTCTVSGGSVNTGSYYWSWIRQPPGKGLEWIAYSSVSGTSNYNPSLKSRVTLTVDTSKNQFSLSVRSVTAADTAVYFCARLNYDILTGYYFFDFWGQGTLVIVSS
VL: QVELTQSPSASASLGTSVKLTCTLSSGHSTYAIAWHQQRPGKGPRYLMNLSSGGRHTRGDGIPDRFSGSSSGADRYLIISSLQSEDEADYYCQTWDAGMVFGGGTKLTVL
Work on B2 yielded a Kd of 0.0445 nM.
